B1: EHEE_rd4_0726 (parent)
chain: DIEITTNGEEDAKRVIKELQKRNLEYHIEVHGNQWVIKVR

Variants of: B1
Experiment: folding stability dG (cDNA display proteolysis); higher = more stable
Conditions: PBS, room temperature

Folding stability dG [kcal/mol], by site and new letter:
W35: F 1.79; L 1.53; Y 1.85; Q 0.512; N -0.421; V 1.67; M 1.44; A 0.294; C 1.35; I 2.06; G -0.933; S 0.359; T 1.24; K 0.49; H 0.787; R 0.717
V39: T 1.12; K -0.993; P -0.609; M 1.44; Y 2.08; H 0.549; I 2.58; R -0.082; Q -0.263; W 1.83; F 2.15; L 1.98; A 1.06; G 0.015; S 0.617
H31: N 2.42; M 2.32; I 2.72; E 1.68; C 2.31; W 2.08; P -0.6; S 2.12; V 2.61; D 1.79; G 0.973; R 2.97; F 2.36; Y 2.26; K 2.5; L 2.27; A 1.88; Q 2.29; T 2.17
V30: N 1.57; I 2.72; H 1.94; E 1.16; F 2.06; P 0.866; K 2.36; Y 2.12; D 0.526; G 0.63; M 2.01; T 1.71; C 2.23; R 2.43; Q 2.14; L 1.86; S 1.32; W 1.81; A 1.41
Q34: V 2.72; D 1.68; I 2.87; R 2.59; F 2.65; H 2.36; A 1.92; T 2.58; Y 2.5; W 2.32; E 1.85; G 1.42; S 2.1; L 2.65; N 2.21; K 2.56; P -0.908; M 2.6
N33: C 1.96; F 2.06; G 2.34; K 1.92; H 2.03; I 1.66; T 2.24; W 1.83; V 1.76; E 2.16; Y 1.98; A 2; Q 2.09; S 2.22; P 1.78; R 1.68; D 2.5; M 1.97; L 1.94
I28: V 2.53; M 1.61; A 1.04; Q 0.128; T 1.09; S 0.224; W 1.24; H -0.075; L 2.02; E -0.159; K -0.291; F 1.48; Y 1.48
V36: M 1.37; Q 0.978; L 1.93; W 1.16; Y 1.7; A 0.418; K 1.67; R 1.7; F 1.85; H 1.47; I 2.7; E 0.046; C 1.43; N 0.793; T 1.77; S 0.912
I37: M 0.481; C 1.49; V 1.5; F 1.95; L 1.21
H27: T 3.34; R 2.59; Y 2.73; Q 2.45; V 2.86; S 3.05; W 2.69
K38: F 2.63; D -0.365; T 2.77; G 0.141; V 2.7; M 2.16; L 2.34; S 1.94; W 2.19; E 0.557; N 1.29; H 2.39; R 2.58; Q 1.62; A 1.32; C 2.33; I 3.04; Y 2.68
R40: K 2.63; H 2.74; E 1.73; S 2.18; Y 2.57; F 2.73; Q 2.11; D 1.59; L 2.7; A 2.12; P 1.89; V 2.65; C 2.97; W 2.3; I 2.84; M 2.58; T 2.48; N 1.97; G 1.81
G32: S 1.21; I 1.21; R 1.09; V 1.08; Y 1.19; F 1.51; P 1; N 1.94; K 1.35; H 1.39; M 1.43; W 0.99; T 1; E 1.9; Q 1.59; A 1.44; L 1.38; D 1.85
E29: F 2.27; L 1.91; V 2.3; N 1.41; K 1.66; A 1.71; W 1.82; Y 2.26; T 2.33; H 1.78; R 1.77; Q 2; D 1.56; I 2.32; M 1.93; S 2.14; G 0.743
